# Assay results published in IntAct's records for PubMed 17167418.
# B1: Synaptotagmin-2 (Mus musculus), P46097 (parent)
# chain: MRNIFKRNQEPNVAPATTTATMPLAPVAPADNSTESTGPGESQEDMFAKLKEKFFNEINKIPLPPWALIAMAVVAGLLLLTCCFCICKKCCCKKKKNKKEKGKGMKNAMNMKDMKGGQDDDDAETGLTEGEGEGEEEKEPENLGKLQFSLDYDFQANQLTVGVLQAAELPALDMGGTSDPYVKVFLLPDKKKKYETKVHRKTLNPAFNETFTFKVPYQELAGKTLVMAIYDFDRFSKHDIIGEVKVPMNTVDLGQPIEEWRDLQGGEKEEPEKLGDICTSLRYVPTAGKLTVCILEAKNLKKMDVGGLSDPYVKIHLMQNGKRLKKKKTTVKKKTLNPYFNESFSFEIPFEQIQKVQVVVTVLDYDKLGKNEAIGKIFVGSNATGTELRHWSDMLANPRRPIAQWHSLKPEEEVDALLGKNK
# Variants of: B1
# Conditions: with bxb_clobo botB
row,Variant,effect of a mutation on the interaction
1,F55A,disrupting interaction strength
2,F54A,disrupting interaction strength
3,F47A,disrupting interaction strength
